Two molecules from PMC12420824, “Discovery of a selective alpha-kinase 1 inhibitor for the rare genetic disease ROSAH syndrome” (Nature Communications, 2025) can be followed below.

Data set [1] addresses T1, human ALPK1 N-terminal regulatory domain aa. 1-446 (human, UniProt Q96QP1-1 1-446).
T1 construct: The sentence names the His-TEV tag before the mouse kinase domain; it is read here as applying to both constructs; also called ALPK1-ND; human N-terminal regulatory domain; source: E. coli, purified (Ni column; His-tag cleaved with TEV protease)
The experiment in a line: crystal structure; mALPK1-KD and ALPK1-ND mixed, complex purified by size exclusion chromatography, 10 mg/ml; hanging drop vapor diffusion, 12% PEG 3350, 0.1 M CBTP pH 8.2. Conditions: both partners purified.

Data set [2] deals with the molecule itself. In words: AlphaScreen or HTRF; TR-FRET after kinase reaction (260 nM HA-His-TIFA, 2 nM ALPK1, 6.25 uM ATP, 20 nM ADP-D-heptose, 1.5 h, 27 °C); anti-HA-Eu cryptate and anti-HA-d2 bound to the same TIFA oligomer, 26 °C for 1 h.

T1 sequence (Q96QP1 1-446): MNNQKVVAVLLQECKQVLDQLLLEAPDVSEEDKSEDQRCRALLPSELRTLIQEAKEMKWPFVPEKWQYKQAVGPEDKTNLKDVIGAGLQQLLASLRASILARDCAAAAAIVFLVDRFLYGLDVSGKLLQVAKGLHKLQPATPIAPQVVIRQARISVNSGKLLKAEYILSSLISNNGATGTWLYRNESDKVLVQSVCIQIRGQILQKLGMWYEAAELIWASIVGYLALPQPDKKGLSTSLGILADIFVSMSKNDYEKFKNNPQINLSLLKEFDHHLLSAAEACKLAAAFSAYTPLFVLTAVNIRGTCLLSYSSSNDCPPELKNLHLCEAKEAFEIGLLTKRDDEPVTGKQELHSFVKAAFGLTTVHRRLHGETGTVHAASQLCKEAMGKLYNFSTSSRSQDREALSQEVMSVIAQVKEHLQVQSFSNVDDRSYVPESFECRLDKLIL

B1: Mouse ALPK1 kinase domain aa. 949-1231 (domain or fragment)
chain: not shown
notes: Used for crystallography in complex with the human N-terminal domain (a complex of two species' forms); also called mALPK1-KD; mouse kinase domain; source: E. coli, purified (Ni column; His-tag cleaved with TEV protease)
On to B1, for which the binding result in data set [1] is listed as “binds”.

B2: recombinant HA-His-tagged TIFA, phosphorylated by ALPK1 (natural protein, human, UniProt Q96CG3 1-184, looked up)
chain: MTSFEDADTEETVTCLQMTVYHPGQLQCGIFQSISFNREKLPSSEVVKFGRNSNICHYTFQDKQVSRVQFSLQLFKKFNSSVLSFEIKNMSKKTNLIVDSRELGYLNKMDLPYRCMVRFGEYQFLMEKEDGESLEFFETQFILSPRSLLQENNWPPHRPIPEYGTYSLCSSQSSSPTEMDENES
modifications: phosphorylated by recombinant ALPK1 in the kinase reaction; residues not stated for this experiment
notes: TIFA, human; source: E. coli, purified (Ni column, desalted); phosphorylated in vitro by recombinant ALPK1; not shown: HA, N-terminal, kept
For the molecule B2, the binding result in data set [2] is “binds”.
